For 130 substances, amyloid nucleation score results are on record in the supplement of paper PMC12042874.

± gives the uncertainty stated by the source.

The series in a line: amyloid nucleation score (Sup35N fusion, yeast selection) (log enrichment); library NNK3; higher = more nucleation; inactive = no reads after selection. The gist of the method: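 On medium lacking adenine and uracil, psi-negative yeast expressing peptides of 20 random codons fused to Sup35N were grown 7 days at 30°C after a 24-hour induction with 100 μM copper sulfate. Illumina sequencing of input and output plasmid inserts gave the reads, and sequences under 100 input reads were excluded. The nucleation score is the DiMSum log enrichment of output over input reads, centred on the mode score of non-aggregating sequences.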

For RQWQGNFSSVGFLEIKDALF, the amyloid nucleation score result was “inactive”.

STIISWWSTVIYFKLI: the amyloid nucleation score entry is “inactive”. Next, LESINTLLNYVYYFNLVN: “inactive”; DSTDFRVLRGRRSRGEYVRG: “inactive”; NVPGLSCNTSARLWRSSRLS: “inactive”.

In the case of LSFYTFGNNWTKRCNCPTAS, the amyloid nucleation score result is “inactive”. As to HLRLRRTFGINLH, the amyloid nucleation score entry was “inactive”. Consider IEGEYLVASAWRFLQSKHAH, for which the amyloid nucleation score result is “inactive”. The value for WLGMCPLLTVVLTGIFLTPF was 0.487 ± 0.2; that for QRRAL was “inactive”; that for YGFAVRLCCPSLNVFLTELL was 0.612 ± 0.15.

As for FLVTYKISWRYKSQQLCSYY, the amyloid nucleation score result was “inactive”. Turning to CLMVKHYFFVSSWRFNVFGI, the amyloid nucleation score result was “inactive”. For GMYGMSGMV, the amyloid nucleation score result was “inactive”. Take HRAPMSHPVCLMIKWLLWVL: the amyloid nucleation score result is “inactive”.

Regarding IHRNEYMMRKKDRILQNLAV, the amyloid nucleation score result is “inactive”. Next, CVCVGDSDYCSQSVCVTSYR: “inactive”; SRNPYLYQIHVYKVTGFLCC: 2.51 ± 0.062; RVGTMLHGDWAYCHR: “inactive”.

Turning to LVDLRTVSYTLSQKMKFGGS, the amyloid nucleation score entry is “inactive”.

As for NFVQFSTTISFDHNCHMVGC, the amyloid nucleation score entry was “inactive”. Next, SLAVGLLNCLL: 2.17 ± 0.075. Take WDRSMMIAIDD: the amyloid nucleation score result was “inactive”. For the substance RSTAPGTGSDIPFEDSLRQM, the amyloid nucleation score result is “inactive”. The value for VYINVNDVALKHRFLKPV was “inactive”; that for WSFRNVVSVGMWYLCSDRIG was “inactive”.

For the substance CADFFQDCAHKIFKNNRITG, the amyloid nucleation score entry is “inactive”.

As for CNCPPPPSSRYYSFSKAVYG, the amyloid nucleation score result was “inactive”. In turn, TQFTLCTIHSVLCVNA came in with an amyloid nucleation score of 2.06 ± 0.078. In the case of WYMGFSAVLVCFRLSRPVT, the amyloid nucleation score result is “inactive”. The value for MAFRETRWNFLLNKV was “inactive”; that for RLSGSEKVELM was “inactive”; that for DGHWVALREKSFSNQYRSET was “inactive”. Take CCRFAVLRRLERSDQKGVWI: the amyloid nucleation score entry is “inactive”. The value for SCLMLSIYSSQTWKSLCGLK was 0.95 ± 0.12. On to SDRLS, for which the amyloid nucleation score entry was “inactive”.

Take AVTKNVTERFHMLMPKDWVG: the amyloid nucleation score entry is “inactive”. As for VPPVVSAP, the amyloid nucleation score was 1.05 ± 0.12. For the substance WCFHVKTSSLVLSRQWEPLS, the amyloid nucleation score result is “inactive”.

In the case of REKLDQP, the amyloid nucleation score result was “inactive”. Next, CKIRGCKVLLDFVMASVDLW: “inactive”; ADGWFEIFKGYSAPGAHSVL: -0.48 ± 1.1. On to ATCLLIGFGPWMSPAG, for which the amyloid nucleation score entry was “inactive”. Next, LGVHWNPFIWVSSDARQNSR: -0.089 ± 0.96; GKKDRVRQTYFYMNSYIHW: 1.65 ± 0.085. The value for LIAFA was 2.53 ± 0.069.

As for CVFLKKPEKMQLLASSFNS, the amyloid nucleation score entry is “inactive”. With LSCMNRTQCHASFSLPL, the amyloid nucleation score result is “inactive”. Consider AKPIRSSGMFVCTAVYEYVF, for which the amyloid nucleation score entry was “inactive”.

Regarding GQWLYGWTRYVGPTI, the amyloid nucleation score entry was “inactive”. The value for VKTRTIRVSH was “inactive”.

SSHIRWHGN: the amyloid nucleation score result was “inactive”. On to DFMRVGVTRRALRVLSKSSD, for which the amyloid nucleation score entry was “inactive”. The value for NFRFPTNGNYGNYLKKESFV was “inactive”; that for HVCHKTYLSLKLHKLDFFYS was 0.391 ± 0.17; that for YLLLDEVRSKYCWGISCTGY was “inactive”.

On to RALVFIIQVVFRFPCTAGIL, for which the amyloid nucleation score result is “inactive”. Next, NLTFYMYIELVDLRGNAE: 2.29 ± 0.056. Turning to CYLVGLCLLFGVQVSGLPYR, the amyloid nucleation score was determined as 0.798 ± 0.26. Next, IFVWYMNVSCGMVDRYGLPM: “inactive”; WKFWVAC: “inactive”; CKRCIPMRYYQL: “inactive”.

Take YTQFYSMILDRRFCFNSVEL: the amyloid nucleation score result was “inactive”. For NLPRKGSGWDIHDRRHPWRS, the amyloid nucleation score result was “inactive”. On to SYYMTKLVFLCPLW, for which the amyloid nucleation score entry was “inactive”. Next, DFNLNEVDTDMGFSLSESL: “inactive”. With GNSHLSCERSCNIKMCMSGG, the amyloid nucleation score result is “inactive”. For FGQVKSCLAPCKSAAKH, the amyloid nucleation score entry was “inactive”.

As for SGLLSAVLDAAS, the amyloid nucleation score entry is “inactive”. The value for VGEVGGYGEFAE was “inactive”; that for ICSGTSH was -0.268 ± 0.6; that for AYLIRIGVIRLFLTLCCG was “inactive”. The value for CFGCVWLTITTNFPTVLFRG was “inactive”; that for RCDCEFYTLKWQCEVYYRGR was “inactive”; that for TIFMWCV was 1.64 ± 0.097. The value for IMRGITEGWEPLVVES was “inactive”. Regarding SYGKTFAMSYVW, the amyloid nucleation score entry was “inactive”. The value for SWTCRFCHMSFIGML was 0.251 ± 0.43; that for EFAGCKRRMRKGPIIVPADV was “inactive”. For the substance CIILRVCTHLVKSSARLPAP, the amyloid nucleation score result is “inactive”. For GGHENKKRYSSRTIGMCVHE, the amyloid nucleation score entry was “inactive”. The value for ISCIGPFCSTIPLIKLNLIE was 1.3 ± 0.1. The value for FYKMVGVRYGC was “inactive”; that for SDRAHGQFFRPGERLPSNPW was -0.069 ± 0.52. Next, IYAPRR: “inactive”; LFLMIFNARNCVRYGIEGPS: “inactive”; IYRLKDRLDDLVSHVDICVV: “inactive”. Consider AIGYLCSALAKVSLFGKWSV, for which the amyloid nucleation score result was “inactive”. The value for RTSVDQLEMKMRFSMSFGWL was 0.449 ± 0.64. Turning to CPVTIYSVYNTASVKALFLR, the amyloid nucleation score entry was “inactive”.

As for CYQPRYLSWLKVRDCEDGVY, the amyloid nucleation score entry is “inactive”. Consider ILIWRSGCYWTSPTEGVFRF, for which the amyloid nucleation score worked out at 0.572 ± 0.2. The value for FHLYCTIITLACCIMVWNCQ was 1.33 ± 0.14; that for QCTASLEHHFVNNQDNASAW was “inactive”; that for AFLACLRLKDLDVVFRSPNR was “inactive”. With LGVSLKGNYAYWFTLIWSDV, the amyloid nucleation score entry is “inactive”. Regarding VNPIERWA, the amyloid nucleation score entry is “inactive”. The value for QWKPWDNTAVGMLPAWIWVD was “inactive”; that for HVNMSNIVLVLFSNSFNMHE was 1.75 ± 0.082; that for SFNHCM was “inactive”. For the substance NLGNVHVLLDQSEPVHCILL, the amyloid nucleation score result was “inactive”. The value for DRFEMPDVLWCRDYCNIARS was “inactive”. In the case of VDNHACPWTGGLHFRKLWNG, the amyloid nucleation score result was “inactive”.

As to AHLLETMDTREVFKIR, the amyloid nucleation score result is “inactive”. Regarding SDEFGDHEGCMLAFRASAVW, the amyloid nucleation score entry is “inactive”. Next, SSCMAFIMGWKYITMD: “inactive”; YDWMFLYPTSIS: 0.319 ± 0.18; QRELSNMVVISLVQAMLWFR: “inactive”. With FSVDYQHRCQGQYPYIWYSN, the amyloid nucleation score result is “inactive”. With VRQWSTFASLMYATENGVNN, the amyloid nucleation score entry was “inactive”. With SCIFPILGVFADDFTMTFTW, the amyloid nucleation score entry was “inactive”. Next, SVKKESCCD: “inactive”; PLFSYLRHSTGCTFAIPNSE: “inactive”; VYHLQLLVGVRGLNPRCAQE: “inactive”. As to PVYGRIKANLKMGLAGGSWV, the amyloid nucleation score entry was “inactive”. The value for ASNYYKCCCSNWLCCLMSDR was 2.91 ± 0.066; that for SLVIAIHRAFLFMAGRSRVG was “inactive”; that for FFYDLMYLIMV was “inactive”. Next, RTECYVYKYDALDSRLGYCD: -0.18 ± 0.62; DNIGSCHDSRAYVS: “inactive”. For the substance SAFNEFFF, the amyloid nucleation score entry was “inactive”. As for CLRRTLEPW, the amyloid nucleation score result was “inactive”.

In the case of VIFTIHNGT, the amyloid nucleation score result is “inactive”. As for IIYMMLYVKEGMSWTSLPDQ, the amyloid nucleation score result was “inactive”. The value for YYMRDCSYIHEFGTGVASDR was “inactive”; that for SLKEVSFWSASRDDGGDRMQ was “inactive”; that for CPTVMAYGKTGG was 0.934 ± 0.21. Regarding YVHWLGSALREGDWVLPSAL, the amyloid nucleation score entry was “inactive”. SNSHVTKDLGVCRGLATCRG: the amyloid nucleation score entry is “inactive”.

Take HWMVSCYFSVRLRARLSRRG: the amyloid nucleation score result was “inactive”.
